Residue numbers refer to the chain shown, from its start.
B1: antibody HB12 (antibody, V domains shown)
VH: VQLQQSGAELVKPGASVKLSCKTSGYTFTSYWMYWVKQRPGQGLEWIGEIYPTNGRTNYNEKFKTKATLTVDKSSSTAYMQLSSLTSEDSAVYYCAIYYYGSYAMDYWGQGTSVTVSS
VL: DIVMTQSHKFMSTSVGDRVSITCKASQDVSIAVAWFQQKPGQSPKLLIYWASTRHTGVPDRFTGSGSGTDYTLTISSVQAEDLALYYCQQHYSTPYLFGGGTKLEIKR
B2: antibody FA2 (antibody, V domains shown)
VH: VQLKQSGPGLVQPSQSLSITCTVSGFSLTSYGVHWVRRSPGKGLEWLGVIWRGGNTDYNAAFMSRLSITKDNSKSQVFFKMTSLQGDDTAIYSCVKSLTTSTFDYWGQGTLVTVSS
VL: B1 VL with F10L, A25G, S30R, I31T, F36Y, K45N, T72I, S76T, T94I, L97T

Biological target: OXA-23-type carbapenemase (UniProt Q9L4P2)
Chain of UniProt Q9L4P2 (Q9L4P2 18-273 limits assumed): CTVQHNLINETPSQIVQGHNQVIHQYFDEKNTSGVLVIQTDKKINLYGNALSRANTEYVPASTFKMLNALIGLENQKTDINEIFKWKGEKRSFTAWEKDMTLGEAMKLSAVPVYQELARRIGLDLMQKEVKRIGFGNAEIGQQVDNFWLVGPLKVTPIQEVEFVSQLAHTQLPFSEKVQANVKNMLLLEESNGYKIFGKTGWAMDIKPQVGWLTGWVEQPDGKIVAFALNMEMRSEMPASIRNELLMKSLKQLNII
Test: indirect ELISA, plate coated with OXA-23-type carbapenemase at 0.2 ug/mL, serial dilution of purified antibody from 1:1,000
Conditions: scale: dilution factor

Row | Binder | titer
1 | B1 | > 640000
2 | B2 | > 640000

From patent publication EP4063498B1
